# Results published in article PMC4863741 (Genes & Development, 2016).
# T1: GST-His-Sfmbt-SAM_(1137-1220) (Drosophila, UniProt Q9VK33 1137-1220)
# T1 sequence (looked up): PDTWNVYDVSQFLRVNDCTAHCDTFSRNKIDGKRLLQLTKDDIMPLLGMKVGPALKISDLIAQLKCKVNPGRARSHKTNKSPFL
# T2: Sfmbt-SAM_(1137-1220) (Drosophila, UniProt Q9VK33 1137-1220)
# T2 sequence (looked up): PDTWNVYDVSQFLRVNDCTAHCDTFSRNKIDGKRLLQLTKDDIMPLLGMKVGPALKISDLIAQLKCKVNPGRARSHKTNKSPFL
# Assays:
# [1] = target: T1, GST-His-Sfmbt-SAM_(1137-1220); assay: pull-down
# [2] = target: T2, Sfmbt-SAM_(1137-1220); assay: SEC
binder,measurement,setting,value
"His-Scm-SAM_(803-877)^L855E/L859E (domain or fragment, Drosophila, UniProt Q9VHA0 803-877, looked up) PIDWTIEEVIQYIESNDNSLAVHGDLFRKHEIDGKALLLLNSEMMMKYMGLKEGPAEKICNLVNKVNGRRNNLAL",binding result,[1],binds
"Scm-SAM_(803-877)^L855E/L859E (coexpressed with Sfmbt-SAM) (domain or fragment, Drosophila, UniProt Q9VHA0 803-877, looked up) PIDWTIEEVIQYIESNDNSLAVHGDLFRKHEIDGKALLLLNSEMMMKYMGLKEGPAEKICNLVNKVNGRRNNLAL",binding result,[2],binds
